Laboratory results taken from patent US5994104.

Columns and labels:
IL-12 receptor [1] = target: IL-12 receptor
IL-12 receptor [2] = target: IL-12 receptor; remark: listed apart in the source

INF-γ production by PHA blasts (ELISA, 36 hours) (IL-12 receptor [1]): 186 ng/mL | proliferation of PHA blasts (MTT assay, 48 hours); lowest dose with an effect (IL-12 receptor [2]): 10 pg/mL
Substance: recombinant IL-12 (from UniProt P29459) (ligand)
